Patent US20190256864A1 (INDIANA UNIVERSITY RESEARCH AND TECHNOLOGY, published 2019)

Key:
[1] = tested on: T1, Soybean mosaic virus (SMV) PBS1 decoy protein
T1 sequence: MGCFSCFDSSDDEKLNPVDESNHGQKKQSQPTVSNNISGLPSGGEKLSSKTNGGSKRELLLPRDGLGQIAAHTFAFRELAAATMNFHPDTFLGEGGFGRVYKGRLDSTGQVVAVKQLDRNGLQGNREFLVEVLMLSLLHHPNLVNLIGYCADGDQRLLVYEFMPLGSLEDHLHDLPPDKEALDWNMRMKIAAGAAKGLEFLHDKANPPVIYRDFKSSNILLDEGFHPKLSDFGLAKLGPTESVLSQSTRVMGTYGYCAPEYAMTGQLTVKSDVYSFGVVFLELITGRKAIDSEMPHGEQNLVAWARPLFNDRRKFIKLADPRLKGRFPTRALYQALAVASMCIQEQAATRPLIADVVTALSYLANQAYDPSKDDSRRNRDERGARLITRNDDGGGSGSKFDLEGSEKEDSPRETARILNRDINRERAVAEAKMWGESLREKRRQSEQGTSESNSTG

[2] = tested on: T2, Wheat streak mosaic virus (WSMV) PBS1 decoy protein
T2 sequence: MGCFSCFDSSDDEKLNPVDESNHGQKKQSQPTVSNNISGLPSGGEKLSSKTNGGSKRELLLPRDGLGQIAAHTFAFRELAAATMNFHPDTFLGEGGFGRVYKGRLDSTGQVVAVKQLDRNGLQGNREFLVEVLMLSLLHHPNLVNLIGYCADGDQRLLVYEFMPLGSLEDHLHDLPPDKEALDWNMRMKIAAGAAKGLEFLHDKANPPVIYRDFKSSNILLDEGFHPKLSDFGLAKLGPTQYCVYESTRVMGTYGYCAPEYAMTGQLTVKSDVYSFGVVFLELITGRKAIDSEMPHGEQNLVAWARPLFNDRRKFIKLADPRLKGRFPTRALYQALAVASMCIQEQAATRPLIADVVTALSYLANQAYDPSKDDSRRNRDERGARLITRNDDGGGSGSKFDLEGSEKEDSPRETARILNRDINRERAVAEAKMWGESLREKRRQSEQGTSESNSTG

[3] = tested on: T3, GmPBS1SCS derivative of GmPBS1a
T3 sequence: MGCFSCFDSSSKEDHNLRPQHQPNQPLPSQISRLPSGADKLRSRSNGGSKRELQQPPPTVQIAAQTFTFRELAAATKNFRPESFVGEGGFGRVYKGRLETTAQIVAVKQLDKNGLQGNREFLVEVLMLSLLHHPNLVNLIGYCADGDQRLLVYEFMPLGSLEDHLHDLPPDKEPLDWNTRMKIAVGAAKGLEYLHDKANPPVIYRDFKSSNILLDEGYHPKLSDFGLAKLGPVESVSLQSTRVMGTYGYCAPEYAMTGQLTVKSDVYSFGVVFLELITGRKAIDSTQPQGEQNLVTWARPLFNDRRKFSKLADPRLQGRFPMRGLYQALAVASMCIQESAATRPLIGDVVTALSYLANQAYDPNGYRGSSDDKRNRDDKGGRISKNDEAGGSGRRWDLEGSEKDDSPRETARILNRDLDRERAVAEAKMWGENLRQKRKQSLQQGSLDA

[4] = tested on: T4, GmPBS1SCS derivative of GmPBS1b
T4 sequence: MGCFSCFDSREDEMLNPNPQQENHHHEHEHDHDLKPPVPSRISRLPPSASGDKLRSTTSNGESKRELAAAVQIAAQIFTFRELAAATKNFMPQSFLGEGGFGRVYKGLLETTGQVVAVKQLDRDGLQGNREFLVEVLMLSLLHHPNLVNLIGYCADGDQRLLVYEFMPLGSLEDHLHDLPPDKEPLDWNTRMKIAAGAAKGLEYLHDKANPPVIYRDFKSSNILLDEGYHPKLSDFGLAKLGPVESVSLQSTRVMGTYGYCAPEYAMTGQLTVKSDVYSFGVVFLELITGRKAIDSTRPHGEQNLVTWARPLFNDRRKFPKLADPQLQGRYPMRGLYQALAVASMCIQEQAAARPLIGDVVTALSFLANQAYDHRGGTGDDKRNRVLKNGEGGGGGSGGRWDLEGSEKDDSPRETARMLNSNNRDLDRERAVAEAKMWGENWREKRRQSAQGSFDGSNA

[5] = tested on: T5, GmPBS1SCS derivative of GmPBS1c
T5 sequence: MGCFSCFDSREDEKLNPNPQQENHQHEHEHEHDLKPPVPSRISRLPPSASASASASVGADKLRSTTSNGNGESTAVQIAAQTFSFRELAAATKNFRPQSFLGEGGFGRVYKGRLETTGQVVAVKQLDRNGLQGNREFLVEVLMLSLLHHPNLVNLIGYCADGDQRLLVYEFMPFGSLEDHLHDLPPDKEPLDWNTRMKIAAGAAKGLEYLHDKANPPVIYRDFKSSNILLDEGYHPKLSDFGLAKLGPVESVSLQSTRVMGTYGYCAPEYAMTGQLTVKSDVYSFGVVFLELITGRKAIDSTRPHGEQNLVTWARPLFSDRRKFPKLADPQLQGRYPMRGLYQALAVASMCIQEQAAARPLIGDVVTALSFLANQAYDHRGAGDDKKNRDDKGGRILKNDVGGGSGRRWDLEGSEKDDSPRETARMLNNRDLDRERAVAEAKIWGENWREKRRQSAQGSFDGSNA

HvPBS1-1:HA = molecular target: T6, HvPBS1-1:HA
T6 chain: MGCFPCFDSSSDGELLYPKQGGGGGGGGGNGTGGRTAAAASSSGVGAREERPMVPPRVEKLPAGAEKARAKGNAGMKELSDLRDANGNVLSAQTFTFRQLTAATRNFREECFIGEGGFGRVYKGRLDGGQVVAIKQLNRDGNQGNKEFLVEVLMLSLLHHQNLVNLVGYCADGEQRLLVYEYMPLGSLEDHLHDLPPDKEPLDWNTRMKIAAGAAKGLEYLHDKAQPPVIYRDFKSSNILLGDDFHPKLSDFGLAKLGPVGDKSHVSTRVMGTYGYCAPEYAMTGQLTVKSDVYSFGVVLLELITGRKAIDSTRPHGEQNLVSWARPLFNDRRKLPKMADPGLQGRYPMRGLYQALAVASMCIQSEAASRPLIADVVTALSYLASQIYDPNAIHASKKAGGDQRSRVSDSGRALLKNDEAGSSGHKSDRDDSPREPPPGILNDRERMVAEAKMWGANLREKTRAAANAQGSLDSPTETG

HvPBS1-2:HA = molecular target: T7, HvPBS1-2:HA
T7 chain: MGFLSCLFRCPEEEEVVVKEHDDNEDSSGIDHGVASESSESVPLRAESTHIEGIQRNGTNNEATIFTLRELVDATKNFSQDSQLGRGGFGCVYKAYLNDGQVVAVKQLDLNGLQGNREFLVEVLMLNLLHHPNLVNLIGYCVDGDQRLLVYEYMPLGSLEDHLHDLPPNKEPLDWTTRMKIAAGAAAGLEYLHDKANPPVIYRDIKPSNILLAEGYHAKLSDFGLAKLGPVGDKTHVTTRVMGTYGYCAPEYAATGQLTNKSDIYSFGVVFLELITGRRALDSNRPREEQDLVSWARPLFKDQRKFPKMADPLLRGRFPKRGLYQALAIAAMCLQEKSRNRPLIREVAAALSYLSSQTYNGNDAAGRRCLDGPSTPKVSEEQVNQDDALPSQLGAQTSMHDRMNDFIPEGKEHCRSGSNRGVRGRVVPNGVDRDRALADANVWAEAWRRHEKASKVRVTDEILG

sYFP:LTI6b = molecular target: T8, sYFP:LTI6b (Arabidopsis thaliana, UniProt Q9ZNS6 1-54); test: co-immunoprecipitation (GFP-Trap beads, anti-HA blot) after transient co-expression in N. benthamiana
T8 construct: Negative control in the co-immunoprecipitation; also called sYFP:LTI6b fusion protein; plasma membrane-localized negative control; not shown: N-terminal super yellow fluorescent protein (sYFP)
T8 sequence (looked up): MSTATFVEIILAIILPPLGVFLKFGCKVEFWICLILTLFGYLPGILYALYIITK
Experimental: To determine whether PBR1.c is activated by sensing cleavage of PBS1 proteins, co-immunoprecipitation (co-IP) analyses of PBR1.c with HvPBS1-1:HA, HvPBS1-2:HA, AtPBS1:HA, or NbPBS1:HA was performed. As a positive control, AtPBS1:HA was co-expressed with RPS5:sYFP, which forms a pre- activation complex in the absence of AvrPphB. As a negative control, the plasma membrane-localized fusion protein sYFP:LTI6b with each of the PBS1 proteins (Cutler et al., 2000). […] NbPBS1:HA also immunoprecipitated with PBR1.c:sYFP (and not with sYFP:LTI6b) supporting the notion that AvrPphB-mediated cleavage of NbPBS1 activates PBR1.c-dependent HR in N. benthamiana. Though all of the PBS1 proteins immunoprecipitated with PBR1.c:sYFP, PBR1.c:sYFP preferentially interacted with HvPBS1-2:HA and AtPBS1:HA (FIG. 7).
For transient expression assays in N. benthamiana, we followed the protocol described by DeYoung et al. (2012) and Kim et al. (2016). Briefly, the dexamethasone-inducible constructs were transformed into Agrobacterium tumefaciens GV3101 (pMP90) strains and were streaked onto Luria-Bertani (LB) plates containing 30 μg of gentamicin sulfate per milliliter and 50 μg of kanamycin per milliliter. […]

Molecule: Wheat streak mosaic virus (WSMV) NIa protease
- cleavage of the substrate (immunoblot after transient co-expression in N. benthamiana); not cleaved by the non-matching protease [1]: demonstrating cleavage of the decoy PBS1 proteins only by the matching proteases
- cleavage of the substrate (immunoblot after transient co-expression in N. benthamiana) [2]: demonstrating cleavage of the decoy PBS1 proteins only by the matching proteases

Molecule: Soybean mosaic virus (SMV) NIa protease
- cleavage of the substrate (transient coexpression in N. benthamiana) [3]: Transient coexpression of the modified GmPBS1 constructs along with the SMV NIa protease in N. benthamiana resulted in NIa-mediated cleavage of GmPBS1SCS
- cleavage of the substrate (transient coexpression in N. benthamiana) [4]: Transient coexpression of the modified GmPBS1 constructs along with the SMV NIa protease in N. benthamiana resulted in NIa-mediated cleavage of GmPBS1SCS
- cleavage of the substrate (transient coexpression in N. benthamiana) [5]: Transient coexpression of the modified GmPBS1 constructs along with the SMV NIa protease in N. benthamiana resulted in NIa-mediated cleavage of GmPBS1SCS
- cleavage of the substrate (immunoblot after transient co-expression in N. benthamiana) [1]: demonstrating cleavage of the decoy PBS1 proteins only by the matching proteases
- cleavage of the substrate (immunoblot after transient co-expression in N. benthamiana); not cleaved by the non-matching protease [2]: demonstrating cleavage of the decoy PBS1 proteins only by the matching proteases

B1: AvrPphB(C98S):myc (protein)
chain: MKIGTQATSLAVLHNQESHAPQAPIAVRPEPAHAIPEIPLDLAIRPRTRGIHPFLAMTLGDKGCASSSGVSLEDDSHTQVSLSDFSVASRDVNHNNISAGLSTEWLVMSSDGDAESRMDHLDYNGEGQSRGSERHQVYNDALRAALSNDDEAPFFTASTAVIEDAGFSLRREPKTVHASGGSAQLGQTVAHDVAQSGRKHLLSLRFANVQGHAIACSCEGSQFKLFDPNLGEFQSSRSAAPQLIKGLIDHYNSLNYDVACVNEFRVS
- cleavage of the substrate (Western blot after transient co-expression in N. benthamiana) (HvPBS1-1:HA): This did not produce any cleavage products
- cleavage of the substrate (Western blot after transient co-expression in N. benthamiana) (HvPBS1-2:HA): This did not produce any cleavage products
- cleavage of the substrate (immunoblot after transient co-expression in N. benthamiana) (NbPBS1:HA): Co-expression with AvrPphB:myc, but not the protease inactive mutant, resulted in cleavage of NbPBS1:HA

B2: HvPBS1-1:HA (enzyme, not shown: small tags and cut ends)
chain: MGCFPCFDSSSDGELLYPKQGGGGGGGGGNGTGGRTAAAASSSGVGAREERPMVPPRVEKLPAGAEKARAKGNAGMKELSDLRDANGNVLSAQTFTFRQLTAATRNFREECFIGEGGFGRVYKGRLDGGQVVAIKQLNRDGNQGNKEFLVEVLMLSLLHHQNLVNLVGYCADGEQRLLVYEYMPLGSLEDHLHDLPPDKEPLDWNTRMKIAAGAAKGLEYLHDKAQPPVIYRDFKSSNILLGDDFHPKLSDFGLAKLGPVGDKSHVSTRVMGTYGYCAPEYAMTGQLTVKSDVYSFGVVLLELITGRKAIDSTRPHGEQNLVSWARPLFNDRRKLPKMADPGLQGRYPMRGLYQALAVASMCIQSEAASRPLIADVVTALSYLASQIYDPNAIHASKKAGGDQRSRVSDSGRALLKNDEAGSSGHKSDRDDSPREPPPGILNDRERMVAEAKMWGANLREKTRAAANAQGSLDSPTETG
notes: also called HORVU2Hr1G070690.2; MLOC_13277
- binding result (sYFP:LTI6b): no binding

B3: HvPBS1-2:HA (enzyme, not shown: small tags and cut ends)
chain: MGFLSCLFRCPEEEEVVVKEHDDNEDSSGIDHGVASESSESVPLRAESTHIEGIQRNGTNNEATIFTLRELVDATKNFSQDSQLGRGGFGCVYKAYLNDGQVVAVKQLDLNGLQGNREFLVEVLMLNLLHHPNLVNLIGYCVDGDQRLLVYEYMPLGSLEDHLHDLPPNKEPLDWTTRMKIAAGAAAGLEYLHDKANPPVIYRDIKPSNILLAEGYHAKLSDFGLAKLGPVGDKTHVTTRVMGTYGYCAPEYAATGQLTNKSDIYSFGVVFLELITGRRALDSNRPREEQDLVSWARPLFKDQRKFPKMADPLLRGRFPKRGLYQALAIAAMCLQEKSRNRPLIREVAAALSYLSSQTYNGNDAAGRRCLDGPSTPKVSEEQVNQDDALPSQLGAQTSMHDRMNDFIPEGKEHCRSGSNRGVRGRVVPNGVDRDRALADANVWAEAWRRHEKASKVRVTDEILG
notes: also called HORVU3Hr1G035810.1; MLOC_12866
- binding result (sYFP:LTI6b): no binding
